Here are results for one variant from IntAct's records for PubMed 17498700.

The labels stand for the following.
B1: Type-1 angiotensin II receptor (Homo sapiens), P30556 (parent)
chain: MILNSSTEDGIKRIQDDCPKAGRHNYIFVMIPTLYSIIFVVGIFGNSLVVIVIYFYMKLKTVASVFLLNLALADLCFLLTLPLWAVYTAMEYRWPFGNYLCKIASASVSFNLYASVFLLTCLSIDRYLAIVHPMKSRLRRTMLVAKVTCIIIWLLAGLASLPAIIHRNVFFIENTNITVCAFHYESQNSTLPIGLGLTKNILGFLFPFLIILTSYTLIWKALKKAYEIQKNKPRNDDIFKIIMAIVLFFFFSWIPHQIFTFLDVLIQLGIIRDCRIADIVDTAMPITICIAYFNNCLNPLFYGFLGKKFKRYFLQLLKYIPPKAKSHSNLSTKMSTLSYRPSDNVSSSTKKPAPCFEVE

In the first assay the parent is B1. Conditions: with arrb1_human ARRB1, P49407.
Chain of arrb1_human ARRB1, P49407 (P49407 whole entry): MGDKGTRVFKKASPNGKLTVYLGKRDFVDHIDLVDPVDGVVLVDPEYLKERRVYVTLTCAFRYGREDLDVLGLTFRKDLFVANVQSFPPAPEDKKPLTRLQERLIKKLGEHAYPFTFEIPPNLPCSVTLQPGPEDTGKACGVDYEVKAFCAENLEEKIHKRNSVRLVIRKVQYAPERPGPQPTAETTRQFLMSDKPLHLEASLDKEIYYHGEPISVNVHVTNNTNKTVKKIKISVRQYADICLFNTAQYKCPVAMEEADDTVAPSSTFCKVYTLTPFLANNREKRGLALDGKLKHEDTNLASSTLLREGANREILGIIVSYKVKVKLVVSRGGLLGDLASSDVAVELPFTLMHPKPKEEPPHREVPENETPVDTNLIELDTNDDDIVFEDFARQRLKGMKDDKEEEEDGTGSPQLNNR
As for MILNSSTEDGIKRIQDDCPKAGRHNYIFVMIPTLYSIIFVVGIFGNSLVVIVIYFYMKLKTVASVFLLNLALADLCFLLTLPLWAVYTAMEYRWPFGNYLCKIASASVSFGLYASVFLLTCLSIDRYLAIVHPMKSRLRRTMLVAKVTCIIIWLLAGLASLPAIIHRNVFFIENTNITVCAFHYESQNSTLPIGLGLTKNILGFLFPFLIILTSYTLIWKALKKAYEIQKNKPRNDDIFKIIMAIVLFFFFSWIPHQIFTFLDVLIQLGIIRDCRIADIVDTAMPITICIAYFNNCLNPLFYGFLGKKFKRYFLQLLKYIPPKAKSHSNLSTKMSTLSYRPSDNVSSSTKKPAPCFEVE [N111G], the “effect of a mutation on the interaction” value is “decreasing interaction”.

The next assay covers variants of B1. The conditions noted are these: with gnaq_human GNAQ.
With MILNSSTEDGIKRIQDDCPKAGRHNYIFVMIPTLYSIIFVVGIFGNSLVVIVIYFYMKLKTVASVFLLNLALADLCFLLTLPLWAVYTAMEYRWPFGNYLCKIASASVSFGLYASVFLLTCLSIDRYLAIVHPMKSRLRRTMLVAKVTCIIIWLLAGLASLPAIIHRNVFFIENTNITVCAFHYESQNSTLPIGLGLTKNILGFLFPFLIILTSYTLIWKALKKAYEIQKNKPRNDDIFKIIMAIVLFFFFSWIPHQIFTFLDVLIQLGIIRDCRIADIVDTAMPITICIAYFNNCLNPLFYGFLGKKFKRYFLQLLKYIPPKAKSHSNLSTKMSTLSYRPSDNVSSSTKKPAPCFEVE [N111G], the “effect of a mutation on the interaction” value is on record as “increasing interaction”.
